Tested on: MS2 coat protein
Assay: apparent KD of MS2 coat protein; higher = weaker reporter binding
Conditions: Eterna round: R107
Method in brief: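 Designed RNA switches were transcribed on-chip from Illumina sequencing clusters. They were then titrated with SNAP-549-labelled MS2 coat protein (twofold steps, 0.7 or 1.5 nM to 3 µM; 0.8–1.5 h to 10–20 min per step) in 100 mM Tris-HCl pH 7.5, 80 mM KCl, 4 mM MgCl2, without or with constant ligand. Apparent KD is the per-design median of normalised cluster binding-curve fits.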

[1] = input ligand: theophylline 20 uM
[2] = input ligand: tryptophan 2.4 mM
[3] = input ligand: theophylline 2 mM

Sequence | apparent KD of MS2 coat protein (input ligand: arginine 13.2 mM) | apparent KD of MS2 coat protein [1] | apparent KD of MS2 coat protein [2] | apparent KD of MS2 coat protein (input ligand: none) | apparent KD of MS2 coat protein [3]
GAUUGCAUCGAUUCUCCACUCGCACCUGAUACCAGCGAUAGAAUUCGCCCUUGGCAGCAGUACACAUGAGGAUCACCCAUGUUAU [theeternabot_exclusion_MS2_Theo_A_20] | 25.5 nM | 42.4 nM | 35 nM | – | –
UGGGUACAUGAGGAUCACCCAUGUACUGAAGGAGCGAGAAAUAUCUCAGGUAGGUCGCAGACAUGAGGAUCACCCAUGUAGUAGG [Exclusion Arginine A GF 11] | 29.5 nM | 31.8 nM | 26.7 nM | 28.1 nM | 33.1 nM
UGAUAUGUGGGAAGGAGCGCAUACUUCACAUGAGGAUCACCCAUGUCAAGACGUGAGUCAGUGCAGGUAGGUCGCCUAGUUAUGA [Same State - Arginine B (Freestyle 19)] | 36.8 nM | 101 nM | 85.3 nM | 124 nM | 147 nM
UGUAUGUGAUUUGAUACCAGACCAGCUGGUGGUACACGAGGAUCACCCGUGUAGGUUUGGGUCCCUUGGCAGCAAAUCGCAUACU [SS Theo B #24 Ms3] | 53.7 nM | 68.7 nM | 54.5 nM | 56.8 nM | 18.1 nM
UCGCGAUAGAGAAGGAGCGUCAACACCACUUAACAUGAGGAUCACCCAUGUGUUACUUUGUGACAGGUAGGUCGCUCUAGCGCUU [JR_Nu_ExcArginiB_Sub026] | 21.1 nM | 25.3 nM | 18.4 nM | 19.3 nM | 20.9 nM
CUACAUUUGUAGAAACCGGUCAACAAUAAUCGAGGACCGGUACGGCCGCCACUCGAUGUGAAAUACACAUGAGGAUCACCCAUGU [Tryptophan A 13] | 15.8 nM | 19.1 nM | – | – | 19.9 nM
AAUAUUAACUGAAGGAGCGUGUUAUGUACAUGAGGAUCACCCAUGUAUAGGGUAAUACUAACACAGGUAGGUCGCAGAAUAAUUA [JR_SSArginiB_Sub010] | 20.2 nM | 37.9 nM | 18.5 nM | 20.6 nM | 22 nM
AAUAUCAUGAGGAUCACCCAUGAAGAAGAUACCAGAGUGAUGAUCCUCCCUUGGCAGCUUAACGCUGAUUGAUUACAAUCAGCGA | 31.1 nM | 128 nM | 30.3 nM | 51.8 nM | 200 nM
AAGCUGCCAAGAACAUGGGUGAAAUGUGAUACCAGCUAGGAAACUAGCCCUUGGCAGCACAUGAGGAUCACCCAUGUAAUAAUAA [(T)'-(M)'-(T1)-(T2)-(M1)-(M2)_Design2_2/19/17] | 75.7 nM | 264 nM | 377 nM | – | –
GAUUGGAUUUGAAGGAGCGUCGAAAAUGGGUAAACAUGAGGAUCACCCAUGUAAAGGGAACGACAGGUAGGUCGCAAAUUUAAUC [AstromonsSSArgB#31] | 84.7 nM | 148 nM | 162 nM | 111 nM | 213 nM
AGCAACAAGUCGGCCGCCACUCAUUUAACAUGAGGAUCACCCAUGUGAAUAACAUGGUUGUAAUAGAGGACCGGGACAGUUGCAU [JR_SSTryptoB_Sub016] | 205 nM | 283 nM | – | – | 401 nM
CAUACUUUAGUAUGUUAUGUGGACAGUGAUACCAGAUACGAAAGUAUCCCUUGGCAGCACAACAUGAGGAUCACCCAUGUAUUUU [Theophylline A 4] | 25.8 nM | 22.2 nM | 21.5 nM | – | –
UAUCCACAUGAGGAUCACCCAUGUUAGGAAGGAGCGGUGAAUGAACCAGGUAGGUCGCCUAGCUGAGGACCAUCGAUGGAUUCGU [Exclusion - Arginine A (Freestyle 15)] | 17 nM | 25.5 nM | 20.1 nM | 20.3 nM | 27.5 nM
ACAUGAGGAUCACCCAUGUUUGAUGUUCCUCGAGGACCGGUACGGCCGCCACUCGAACGAGUGGCGCGCGCGCGCGCGCGCGCGC [aQa] | 10.9 nM | 22.9 nM | 13 nM | 12.5 nM | 14.5 nM
AGUCUUAAUGGAAGGAGCGCAGUCAUAACAUGAGGAUCACCCAUGUCGAGGUGAGGGUCAUUGCAGGUAGGUCGCCAUACUAAGA [Same State - Arginine B (Freestyle 3)] | 125 nM | 220 nM | 245 nM | 199 nM | 265 nM
UGGUAGCCACACUUCAAACAUCGACAAGAUACCAGUUAAUCAACGAACCCUUGGCAGCUUCGUACAUGAGGAUCACCCAUGUGGA [theeternabot_exclusion_MS2_Theo_A_6] | 18.2 nM | 24.2 nM | 19.5 nM | – | –
AUGCAUAGCACGGCCGCCACUCCAUGUAAACAUGAGGAUCACCCAUGUAAUUUGGAUGUUUUAUAGAGGACCGGGUGAAAUGCAA [JR_ExcTryptoB_Sub004] | 8.42 nM | 10.1 nM | – | – | 10.3 nM
ACAUGAGGGCGAAGGAGCGCGAACAUGAGGAUCACCCAUGUGUAUGUAUGUUGUCAUGUAUCGCAGGUAGGUCGCGCUGUUACAU [Exclusion Arginine B] | 90.1 nM | 245 nM | 307 nM | 233 nM | 341 nM
GCUGUGAAGUCGGCCGCCACUGGUUAGUUUUACCUCAUGUAACAUGAGGAUCACCCAUGUAAUUUCAGGACCGGGACAACAGCAA [JR_ExcTryptoB_Sub017] | 135 nM | 588 nM | – | – | 853 nM

Sequence | apparent KD of MS2 coat protein (input ligand: arginine 13.2 mM) | apparent KD of MS2 coat protein [1] | apparent KD of MS2 coat protein [2] | apparent KD of MS2 coat protein (input ligand: none) | apparent KD of MS2 coat protein [3]
AAGAUACUCUGAAGGAGCGGCAUAAAACAUGAGGAUCACCCAUGUGCGCGGGUGUAAUUAUGCCAGGUAGGUCGCAGAGUAUUUA [#03 Same State - Arginine B] | 168 nM | 373 nM | 412 nM | 401 nM | 629 nM
GCUAGGUCUACGGCCGCCACUAGACGUGGGUUAAACAUGAGGAUCACCCAUGUGCUACAGGCGCAUAGGACCGGGUAGACCUAGC [SSTB NP+V+V2 #9 +-Same Structure] | 86.5 nM | 586 nM | 63.7 nM | 494 nM | 696 nM
CGAAAGCAGUGAUCCAGCUUUCGCCUGGAAGGAGCGAGCGAAAGCUCAGGUAGGUCGCCAGAAACAUGAGGAUCACCCAUGUAAU [(A)''-(M)'-(A)'-(Arg1)-(Arg2)-(M1)-(M2)_Design8] | 36.6 nM | 82 nM | 75.5 nM | 65.4 nM | 145 nM
UAAUUCACUAUUCACGGUCCGAUGUUCGAUACCAGAUCAUUUCGAAUCCCUUGGCAGCGAUUAACAUGAGGAUCACCCAUGUAAC [theeternabot_exclusion_MS2_Theo_A_35] | 28.4 nM | 40.6 nM | 38.6 nM | – | –
UGUACCAUGUCGGCCGCCACUCAUGAUAAACAUGAGGAUCACCCAUGUAGCGUCAAAGACGCUAUGAGGACCGGGACAUGGUACU [TryBS Zipper 2 #StaticStem #Zipper] | 32.5 nM | 49.2 nM | – | – | 45 nM
UAAACUACACAUGAGGAUCACCCAUGUGGCCGAGGACCGGUACGGCCGCCACUCGUGUGUUAAUAAAAGAACUGCAAAGUUCCUU [Aquen] | 63.1 nM | 416 nM | – | – | 504 nM
AUAUAUAUAUAGAAAUAUAUAUAUAUGUAACGAGGACCGGUACGGCCGCCACUCGUGCCGGUGAUAACAUGAGGAUCACCCAUGU [Ex_TrypA - Every engine approves!] | 19.8 nM | 20.9 nM | 20 nM | 16 nM | 20.3 nM
UAUAUAUAUCACGAACUGUGGUGUAUGUCCCGAGGACCGGUACGGCCGCCACUCGCGUGGUUCCACAUGAGGAUCACCCAUGUUG [XTryp A #7] | 20.9 nM | 31.3 nM | – | – | 25.9 nM
UUGAUUACCCAAGCGUGAUGGUCCUAGGAACGAGGACCGGUACGGCCGCCACUCGCAAGCAAACAUGAGGAUCACCCAUGUUUAU [theeternabot_exclusion_MS2_Trp_A_19] | 11.2 nM | 15.9 nM | – | – | 14.1 nM
AGGUGGCGCGGAAGGAGCGAGUUUGCCUAUUACAUGAGGAUCACCCAUGUGGGUAAUGGGACUCAGGUAGGUCGCCGUUGUCGCU [Same State Arginine B GF 27] | 35.6 nM | 91.5 nM | 61.5 nM | 47.9 nM | 68.8 nM
GCUGCCAUACGAAGGAGCGCUGCUGCGAUGUGGCGAACAUGAGGAUCACCCAUGUGGCAGCGGCAGGUAGGUCGCGUAUGGCAGC [#02 Exclusion - Arginine B] | 45.2 nM | 330 nM | 206 nM | 166 nM | 297 nM
GCGGAAUAAUCGGCCGCCACUAUGAUAUAGGAAACUAUAACAUGAGGAUCACCCAUGUAUCCUCAUAGGACCGGGAUUAAAACGC [TrypB - CS] | 39.7 nM | 121 nM | – | – | 101 nM
AUAAAUAAUAAAUAUAAUAAAGUGGGUGAACGAGGACCGGUACGGCCGCCACUCGGACAUGAGGAUCACCCAUGUCCAUGUGAAA [AstrosExtTry#3] | 9.94 nM | 19.1 nM | 40.1 nM | 17.3 nM | 19.3 nM
AUACAUGAGGAUCACCCAUGUCAUUCAGAAGGAGCGUCAUUUUAGACAGGUAGGUCGCUGAUAGUAUUUUUAUACUUUAUGUUUA [JR_SSArginiA_Sub015] | 19.5 nM | 29.3 nM | 21.6 nM | 20.3 nM | 23.3 nM
GCGCUCGACAGAAGGAGCGGCGACGUCGGUGUCAGGAGGCACAUGAGGAUCACCCAUGUCAGCCAGGUAGGUCGCUGUCGAUCGC [Arquce] | 22.8 nM | 41.9 nM | 36.8 nM | 37.3 nM | 40.1 nM
ACGAUGCGACAUGAGGAUCACCCAUGUGAUACCAGCCUGGAAACAGGCCCUUGGCAGCACAAAUACUCCAGAAACGCAUCGAAUA [MAT - Exclusion Theophlline A - Mod of Eli - D3] | 96.3 nM | 356 nM | 348 nM | – | –
GUUUUGGGAUCGGCCGCCACUACAUGAGGAUCACCCAUGUGGACAAAUAGGGUUUUUAAGCUCGGUAGGACCGGGAUUCGAACAU [Abeis] | 15.4 nM | 19 nM | – | – | 17.5 nM
UUAAUCUUAGAAGAAAACUUUUAAGCAGAAGGAGCGUGAUAAAACACAGGUAGGUCGCUGAAGGGAACAUGAGGAUCACCCAUGU [AstrosSSArgA#18] | 29.3 nM | 28.9 nM | 23.1 nM | 22 nM | 29.4 nM
GGGAGGGAGGCGGCCGCCACUGAUUUUCAUAUAUAUAUAACAUGAGGAUCACCCAUGUAGAUAUGCAGGACCGGGCCUUUUUUUU [aaaI] | 21.3 nM | 30.1 nM | – | – | 19.1 nM
